In US20220041740A1 (LIFEARC, published 2022):

Key:
[1] = target: T1, recombinant Human IL-17BR-His extracellular domain (human, UniProt Q9NRM6 18-292); experiment: Biacore T200, antibody captured by anti-human Fc, Human IL17BR-His 20-1.25 nM, 1:1 model
T1 construct: extracellular domain; also called human IL17BR-his tag protein
T1 sequence (looked up): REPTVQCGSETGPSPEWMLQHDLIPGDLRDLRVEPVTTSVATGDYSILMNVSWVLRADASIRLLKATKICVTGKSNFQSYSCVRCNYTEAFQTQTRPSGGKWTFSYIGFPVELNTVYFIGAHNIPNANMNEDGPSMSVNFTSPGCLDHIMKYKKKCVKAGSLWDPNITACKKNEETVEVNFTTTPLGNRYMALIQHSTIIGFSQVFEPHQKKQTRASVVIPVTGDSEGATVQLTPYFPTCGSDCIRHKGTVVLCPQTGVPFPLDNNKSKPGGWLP
Procedure: A Human Antibody Capture kit was used to coat an anti-human IgG (Fc) antibody (in 10 mM sodium acetate, pH 5.0 immobilisation buffer) onto flow paths 2-4 a CM5 chip. Flow-path 1 was blocked and used as a blank control. This anti-human IgG coated chip was then used to immobilize the humanized antibody variants. A concentration series from 20-1.25 nM of Human IL17BR-His using a 2-fold dilution series was made using HBS-EP⁺ buffer. Purified antibody samples were diluted to 1 μg/ml in HBS-EP⁺ buffer and each injected onto one coated flow-path on the chip at a flow-rate of 10 μl/min for 2 mins in a Biacore T200 (GE Healthcare). Association time was set to 8 mins and Dissociation to 90 mins at a flow-rate of 30 μl/min Kinetics of binding/dissociation were analysed using a 1:1 model in the BIAevaluation software
8. Kinetics of the Binding of Humanized hD9040, hD9041 and hD9042 Antibodies to IL-17BR To further characterize the binding of the lead humanized candidates hD9040, hD9041 and hD9042 antibodies to Human IL-17BR-His, kinetics experiments were performed using the Biacore T200 instrument.

[2] = target: T1, recombinant Human IL-17BR-His …; experiment: binding ELISA on Human IL-17BR-His, absorbance 650 nm against antibody conc. (nM)
human IL17RD-his tag = target: T2, human IL17RD-his tag (human, UniProt Q8NFM7 17-299, limits assumed); experiment: ELISA, plate coated with 2 ug/ml human IL17RD-his tag, absorbance 450 nm
T2 construct: Bought
T2 sequence (looked up): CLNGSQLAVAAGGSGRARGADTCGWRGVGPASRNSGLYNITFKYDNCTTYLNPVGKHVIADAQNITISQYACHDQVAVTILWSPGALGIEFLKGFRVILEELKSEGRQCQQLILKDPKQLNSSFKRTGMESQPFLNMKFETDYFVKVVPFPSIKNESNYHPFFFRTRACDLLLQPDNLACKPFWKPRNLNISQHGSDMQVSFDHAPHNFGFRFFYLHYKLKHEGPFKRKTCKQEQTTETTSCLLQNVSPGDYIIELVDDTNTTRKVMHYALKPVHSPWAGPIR
Procedure: (§1) ELISA plates were coated overnight at 4° C. with 2 μg/ml human IL17RA-Fc fusion protein(Sino Biological, 10895-H03H), human IL17BR-his tag protein (Sino Biological, 13091-H08H), human IL17RC-histag protein (11747-H08B), human IL17RD-his tag (10507-H08H). The next day, plates were blocked with 1% BSA in PBS, followed by the addition of hD9042. The binding specificity of hD9042 was measured as the absorbance at 450 nm using anti-human IgG F(ab′)2 peroxidase antibody (Jackson ImmunoResearch Inc).

[3] = target: T3, human IL17RA-Fc fusion protein (human, UniProt Q96F46 33-320); experiment: ELISA, plate coated with 2 ug/ml human IL17RA-Fc fusion protein, absorbance 450 nm
T3 construct: Bought; not shown: Fc part of the bought fusion, not described
T3 sequence (looked up): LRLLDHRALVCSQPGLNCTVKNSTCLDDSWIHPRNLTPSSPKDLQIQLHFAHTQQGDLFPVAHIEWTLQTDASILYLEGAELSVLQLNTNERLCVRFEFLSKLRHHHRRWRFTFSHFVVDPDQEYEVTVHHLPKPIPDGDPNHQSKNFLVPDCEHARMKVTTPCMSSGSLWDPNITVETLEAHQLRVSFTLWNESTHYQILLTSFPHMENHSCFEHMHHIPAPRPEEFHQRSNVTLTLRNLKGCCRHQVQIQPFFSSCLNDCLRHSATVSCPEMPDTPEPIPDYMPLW
Procedure: as §1

[4] = target: T1, recombinant Human IL-17BR-His …; experiment: ELISA, plate coated with 2 ug/ml human IL17BR-his tag protein, detection with anti-human IgG F(ab')2 peroxidase antibody
Procedure: as §1

[5] = target: T4, human IL17RC-histag protein (human, UniProt Q8NAC3-2 21-467, limits assumed); experiment: ELISA, plate coated with 2 ug/ml human IL17RC-histag protein, absorbance 450 nm
T4 construct: Bought
T4 sequence (looked up): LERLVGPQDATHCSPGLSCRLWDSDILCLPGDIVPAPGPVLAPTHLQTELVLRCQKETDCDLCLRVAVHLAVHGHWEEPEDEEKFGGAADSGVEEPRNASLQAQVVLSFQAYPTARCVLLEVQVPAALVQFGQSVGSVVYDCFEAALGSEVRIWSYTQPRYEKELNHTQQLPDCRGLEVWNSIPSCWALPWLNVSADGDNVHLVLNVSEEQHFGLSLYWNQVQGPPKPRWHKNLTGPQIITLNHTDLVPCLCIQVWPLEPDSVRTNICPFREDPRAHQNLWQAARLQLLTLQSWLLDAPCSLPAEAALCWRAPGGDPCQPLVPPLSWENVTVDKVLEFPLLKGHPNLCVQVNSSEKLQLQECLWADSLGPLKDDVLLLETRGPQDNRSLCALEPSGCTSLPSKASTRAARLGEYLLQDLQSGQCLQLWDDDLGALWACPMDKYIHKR
Procedure: as §1

[6] = target: Cynomolgus monkey IL-17BR-monoFc (cynomolgus monkey, UniProt A0A2K5TUK1 18-292); experiment: binding ELISA on recombinant Cynomolgus monkey IL-17BR-monoFc extracellular domain, absorbance 450 nm against antibody conc. (nM)
[7] = target: T1, recombinant Human IL-17BR-His …; experiment: binding ELISA on recombinant Human IL-17BR-His extracellular domain, absorbance 450 nm against antibody conc. (nM)
Mouse IL-17BR-(Fc) = target: T5, Mouse IL-17BR-(Fc) (mouse, UniProt Q9JIP3 18-286); experiment: binding ELISA on recombinant Mouse IL-17BR-(Fc) extracellular domain, absorbance 450 nm against antibody conc. (nM)
T5 construct: extracellular domain; Bought (Sino Biological); not shown: Fc part of the bought fusion (Sino Biological), not described
T5 sequence (looked up): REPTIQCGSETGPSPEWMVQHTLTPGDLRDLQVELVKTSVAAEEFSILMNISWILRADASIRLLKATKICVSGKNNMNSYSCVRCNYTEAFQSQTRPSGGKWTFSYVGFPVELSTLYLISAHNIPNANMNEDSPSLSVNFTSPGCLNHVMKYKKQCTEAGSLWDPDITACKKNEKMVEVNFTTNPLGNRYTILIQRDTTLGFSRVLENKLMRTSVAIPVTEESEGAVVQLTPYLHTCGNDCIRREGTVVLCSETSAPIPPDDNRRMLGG

Chain of Cynomolgus monkey IL-17BR-monoFc (A0A2K5TUK1 entry or part of it): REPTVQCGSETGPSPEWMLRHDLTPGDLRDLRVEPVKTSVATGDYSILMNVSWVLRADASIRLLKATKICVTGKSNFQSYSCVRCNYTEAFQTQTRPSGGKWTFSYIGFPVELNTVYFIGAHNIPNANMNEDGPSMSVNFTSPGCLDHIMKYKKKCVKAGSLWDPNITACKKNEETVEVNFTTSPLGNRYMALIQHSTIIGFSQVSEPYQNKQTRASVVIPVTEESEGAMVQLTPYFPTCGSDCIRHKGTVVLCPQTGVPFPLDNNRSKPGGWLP

| Binder | Kd [1] | koff [1] | kon [1] | EC50 [2] | binding result (human IL17RD-his tag) | binding result [3] | EC50 (read off the curve) [4] | binding result [5] | EC50 [6] | EC50 [7] | EC50 (Mouse IL-17BR-(Fc)) |
| --- | --- | --- | --- | --- | --- | --- | --- | --- | --- | --- | --- |
| humanized antibody hD9040 (antibody, V domains shown, Human IgG1/kappa (pHuG1, pHuK vectors)) VH: EVQLVQSGAEVKKPGASVKVSCKTSGYTFISYWMNWVRQAPGQGLEWMGRIDPYDSEIQYNQKFKDRVTLTRDTSISTAYMELSRLRSDDTAVYYCARSGGFDWFAYWGQGTLVTVSS VL: DIQMTQSPSSLSASVGDRVTITCRASENINSNLAWYQQKPGKAPKLLLYDVTNLADGVPSRFSGSGSGTDYTLTISSLQPEDFATYYCQHFWGPPYTFGGGTKVEIK | 0.02 nM | 6.66e-05 s⁻¹ | 3.42e+06 M⁻¹ s⁻¹ | 0.474 nM | – | – | – | – | – | – | – |
| humanized antibody hD9042 (antibody, V domains shown, Human IgG1/kappa (pHuG1, pHuK vectors); also called lead candidate) VH: QVQLVQSGAEVKKPGASVKVSCKASGYTFISYWMNWVRQAPGQGLEWMGRIDPYDSEIQYNQKFKDRVTMTRDTSISTAYMELSRLRSDDTAVYYCARSGGFDWFAYWGQGTLVTVSS VL: DIQMTQSPSSLSASVGDRVTITCRASENINSNLAWYQQKPGKAPKLLLYDVTNLADGVPSRFSGSGSGTDYTLTISSLQPEDFATYYCQHFWGPPYTFGGGTKVEIK | 0.017 nM | 8.23e-05 s⁻¹ | 4.85e+06 M⁻¹ s⁻¹ | 0.414 nM | no binding | no binding | ~0.3 nM | no binding | – | – | – |
| humanized antibody hD9041 (antibody, V domains shown, Human IgG1/kappa (pHuG1, pHuK vectors)) VH: EVQLVQSGAEVKKPGASVKVSCKTSGYTFISYWMNWVRQAPGQGLEWMGRIDPYDSEIQYAQKFQGRVTLTRDTSISTAYMELSRLRSDDTAVYYCARSGGFDWFAYWGQGTLVTVSS VL: DIQMTQSPSSLSASVGDRVTITCRASENINSNLAWYQQKPGKAPKLLLYDVTNLADGVPSRFSGSGSGTDYTLTISSLQPEDFATYYCQHFWGPPYTFGGGTKVEIK | 0.011 nM | 4.44e-05 s⁻¹ | 3.89e+06 M⁻¹ s⁻¹ | 0.499 nM | – | – | – | – | – | – | – |
| chimeric antibody cD9001 (antibody, V domains shown, Mouse D9.2 variable domains on human IgG1/kappa constant regions; also called chimeric D9.2) VH: QVQLQQPGAELVRPGASVKLSCKTSGYTFISYWMNWVKQGPEQGLEWIGRIDPYDSEIQYNQKFKDKAILTVDKSSSAAYMQLISLTSEDSAVYYCARSGGFDWFAYWGQGTLVTVSA VL: DIQMTQSPASLSVSVGETVTITCRASENINSNLAWYQQKKGKSPQLLVYDVTNLADGVPSRFSGSGSGTQYSLKINSLQSEDFGSYYCQHFWRPPYTFGGGTNLEIK | 0.017 nM | 5e-05 s⁻¹ | 2.9e+06 M⁻¹ s⁻¹ | – | – | – | – | – | 0.291 nM | 0.23 nM | 0.216 nM |
